4 molecules from US20040126882, “Regulatable, catalytically active nucleic acids” (published 2004) can be followed below.

Series [1] concerns the target T1, Cyt18 (mitochondrial tyrosyl-tRNA synthetase, CYT-18) (Neurospora crassa, UniProt P12063 P12063:33-669).
T1 sequence: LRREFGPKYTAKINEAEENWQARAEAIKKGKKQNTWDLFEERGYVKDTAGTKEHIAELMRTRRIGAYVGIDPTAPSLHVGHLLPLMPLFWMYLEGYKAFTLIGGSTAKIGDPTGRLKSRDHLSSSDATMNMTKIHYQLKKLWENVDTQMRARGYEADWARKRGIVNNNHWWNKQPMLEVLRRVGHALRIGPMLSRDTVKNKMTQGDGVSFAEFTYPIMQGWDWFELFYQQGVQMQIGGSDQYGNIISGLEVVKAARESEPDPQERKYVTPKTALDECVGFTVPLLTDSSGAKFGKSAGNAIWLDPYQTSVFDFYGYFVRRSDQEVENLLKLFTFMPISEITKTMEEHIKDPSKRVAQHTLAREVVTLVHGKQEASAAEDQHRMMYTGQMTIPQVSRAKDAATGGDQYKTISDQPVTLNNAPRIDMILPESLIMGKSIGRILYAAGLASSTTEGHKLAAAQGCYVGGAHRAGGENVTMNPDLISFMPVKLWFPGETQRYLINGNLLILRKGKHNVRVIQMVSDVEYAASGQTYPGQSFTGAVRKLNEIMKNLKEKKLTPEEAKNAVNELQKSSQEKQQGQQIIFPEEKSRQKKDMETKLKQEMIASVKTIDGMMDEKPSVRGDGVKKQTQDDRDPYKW
Description: competition. To be noted: chain copies: 2. The procedure: (§1) Ligation assays. In one example, 10 pmol of [³²P]-body-labeled ribozyme and 20 pmol effector oligonucleotide were denatured for 3 min at 70° C. in 5 μl water. The RNA mixture was cooled to room temperature followed by addition of ligation buffer and target protein (20 pmol unless otherwise stated, or water in place of ligand, in the case of […]). After a 5 min equilibration at room temperature, reactions were initiated by the addition of 20 pmol substrate oligonucleotide (S28A) in a final volume of 15 μl. Reactions were incubated at 25° C., and 4 μl aliquots were removed at three appropriate time points and terminated by the addition of 18 μl of SDS stop mix (100 mM EDTA, 80% formamide, 0.8% SDS, 0.05% bromophenol blue, 0.05% xylene cyanol). Samples were denatured for 3 min at 70° C., ligated and unligated species were separated from one another on 8% polyacrylamide gels containing 0.1% SDS, and the amounts of products formed were determined using a Phosphorimager (Molecular Dynamics, Sunnyvale, Calif.). Assays performed over a broad range of protein concentrations (e.g, FIG. 21) differed from typical reaction conditions in that only 1 pmol ribozyme was present in a 10 μl final volume.
(§2) Competition assays. Ligation assays were performed as described above, using 10 pmol of [³²P]-body-labeled ribozyme (cyt7-2 or lys11-2; […]) and 20 pmol effector oligonucleotide (2 μM). The denatured and annealed RNA mixture was combined with ligation buffer, 20 pmol protein (Cyt18, lysozyme, or water in the case of (−) protein samples; 2 μM), and 30 pmol of denatured and annealed competitor RNA (3 μM).

Series [2] addresses T2, hen egg white lysozyme (UniProt P00698 P00698:19-147). Description: competition. The protocol:
as §1, §2

The target of series [3] is T2, hen egg white lysozyme. Description: competition; no appreciable inhibition of lys11-2 activation. The procedure:
as §1
(§3) Competition assays. Ligation assays were performed as described above, using 10 pmol of [³²P]-body-labeled ribozyme (cyt7-2 or lys11-2; […]) and 20 pmol effector oligonucleotide (2 μM). […]

Series [4] concerns the target T1, Cyt18 (mitochondrial tyrosyl-tRNA …). Briefly: competition; greatest reduction of Cyt18 activation of cyt7-2; 3 uM competitor. The conditions noted are these: chain copies: 2. The protocol:
as §1, §3

B1: M12 (ssRNA)
RNA: GGGAAUGGAUCCACAUCUACGAAUUCGAGUCGAGAACUGGUGCGAAUGCGAGUAAGUUCACUCCAGACUUGACGAAGCUU
As to B1, the binding result in series [1] is on record as “binds”; with hen egg white lysozyme [2], “no binding”.

B2: c1 (ssRNA)
RNA: GGGAAUGGAUCCACAUCUACGAAUUCAUCAGGGCUAAAGAGUGCAGAGUUACUUAGUUCACUCCAGACUUGACGAAGCUU
With B2, the binding result with hen egg white lysozyme [2] was “binds”.

B3: B17 (ssRNA)
RNA: GGGAAUGGAUCCACAUCUACGAAUUCGUAGCGUAGAGUAUGAGAGAGCCAAGGUCAGGUUCACUCCAGACUUGACGAAGCUU
Consider B3, for which, in the series with hen egg white lysozyme [2], the binding result is “no binding”.

B4: ND1 group I intron (ssRNA)
RNA: GACUAAUAUGAUUUGGUCUCAUUAAAGAUCACAAAUUGCUGGAAACUCCUUUGAGGCUAGGACAAUCAGCAAGGAAGUUAACAUAUAAUGUUAAAACCUUCAGAGACUAGACGUGAUCAUUUAAUAGACGCCUUGCGGCUCUUAUUAGAUAAGGUAUAGUCCAAAUUUGUAUGUAAAUACAAAAUGAUAAAAAAAAAUGAAAUCAUAUGGG
In the case of B4, the results for the binding result (with hen egg white lysozyme [3]; in series [4]) were “no binding” and “binds”, respectively.
